Results as given in article PMC10598209 (Nature Communications, 2023).
Substitutions are numbered along the chain they refer to. Numbers in names are those of the source. One block for each binder: values may come before it.

Assays:
[1] = molecular target: T1, RSM, RECQ4(348-388) (Homo sapiens, UniProt O94761); test: ITC; 70 mM KCl, pH 6.5, 30 C; FA: 25 mM KPO4 pH 6.5, 70 mM KCl (or 500 mM NaCl), 25 C; ITC: same low-salt buffer, 30 C; NMR dsDNA: 50 mM NaPO4 pH 6.0, 150 mM NaCl, 298 K; NMR G4: 25 mM KPO4; conditions: protein: recombinant, tags: N-terminal His6-TEV construct (pET-M11)
T1 chain: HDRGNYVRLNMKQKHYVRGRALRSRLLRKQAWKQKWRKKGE

[2] = molecular target: T2, sRSM, RECQ4(358-388) (Homo sapiens, UniProt O94761); test: NMR; largest CSP at 5'-end G-tetrad; FA: 25 mM KPO4 pH 6.5, 70 mM KCl (or 500 mM NaCl), 25 C; ITC: same low-salt buffer, 30 C; NMR dsDNA: 50 mM NaPO4 pH 6.0, 150 mM NaCl, 298 K; NMR G4: 25 mM KPO4; conditions: label: 5' FITC (FA); intramolecular hybrid G4
T2 chain: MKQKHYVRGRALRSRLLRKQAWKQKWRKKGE

[3] = molecular target: T3, RSM 5E mutant (Homo sapiens, UniProt O94761 348-388, R375E;K376E;K380E;K382E;R384E); test: NMR; binding not detectable, no droplets; FA: 25 mM KPO4 pH 6.5, 70 mM KCl (or 500 mM NaCl), 25 C; ITC: same low-salt buffer, 30 C; NMR dsDNA: 50 mM NaPO4 pH 6.0, 150 mM NaCl, 298 K; NMR G4: 25 mM KPO4; conditions: protein: recombinant; tags: N-terminal His6-TEV construct (pET-M11); label: 5' FITC (FA); intramolecular hybrid G4
T3 chain: T1 chain with R28E, K29E, K33E, K35E, R37E

[4] = molecular target: T1, RSM, RECQ4(348-388); test: fluorescence anisotropy; low ionic strength (70 mM KCl); submicromolar; FA: 25 mM KPO4 pH 6.5, 70 mM KCl (or 500 mM NaCl), 25 C; ITC: same low-salt buffer, 30 C; NMR dsDNA: 50 mM NaPO4 pH 6.0, 150 mM NaCl, 298 K; NMR G4: 25 mM KPO4; conditions: protein: recombinant, tags: N-terminal His6-TEV construct (pET-M11)
[5] = molecular target: T1, RSM, RECQ4(348-388); test: fluorescence anisotropy; low ionic strength (70 mM KCl); FA: 25 mM KPO4 pH 6.5, 70 mM KCl (or 500 mM NaCl), 25 C; ITC: same low-salt buffer, 30 C; NMR dsDNA: 50 mM NaPO4 pH 6.0, 150 mM NaCl, 298 K; NMR G4: 25 mM KPO4; conditions: protein: recombinant, tags: N-terminal His6-TEV construct (pET-M11)
[6] = molecular target: T4, RECQ4(322-400) (Homo sapiens, UniProt O94761 322-400); test: NMR; only RSM residues affected; FA: 25 mM KPO4 pH 6.5, 70 mM KCl (or 500 mM NaCl), 25 C; ITC: same low-salt buffer, 30 C; NMR dsDNA: 50 mM NaPO4 pH 6.0, 150 mM NaCl, 298 K; NMR G4: 25 mM KPO4; conditions: protein: recombinant; tags: N-terminal His6-TEV construct (pET-M11); label: 5' FITC on strand 1 (FA); blunt
T4 sequence: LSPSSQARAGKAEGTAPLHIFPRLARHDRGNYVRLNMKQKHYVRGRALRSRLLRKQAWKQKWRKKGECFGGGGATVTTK

[7] = molecular target: T1, RSM, RECQ4(348-388); test: NMR 2D lineshape analysis (competition with RPA32C); 150 mM NaCl, pH 6.0, 298 K; kon 1.5e10 M-1 s-1; FA: 25 mM KPO4 pH 6.5, 70 mM KCl (or 500 mM NaCl), 25 C; ITC: same low-salt buffer, 30 C; NMR dsDNA: 50 mM NaPO4 pH 6.0, 150 mM NaCl, 298 K; NMR G4: 25 mM KPO4; conditions: protein: recombinant; tags: N-terminal His6-TEV construct (pET-M11); label: 5' FITC on strand 1 (FA); blunt
[8] = molecular target: T5, RPA32C, RPA32(172−270) (human, UniProt P15927 172-270); test: NMR titration; 1H-15N HSQC of 50 or 100 μM 15N-labelled protein (RECQ4 or RPA) with step-wise addition or an excess of the unlabelled partner; buffer and temperature in Supplementary Table 6; conditions: both partners purified
T5 construct: Used 15N-labelled or unlabelled in NMR; unlabelled in ITC; also called RPA32C domain; source: E. coli BL21(DE3), purified (IMAC, TEV cleavage, second IMAC, Superdex 75); not shown: His6, N-terminal, cleaved
T5 sequence (P15927 172-270): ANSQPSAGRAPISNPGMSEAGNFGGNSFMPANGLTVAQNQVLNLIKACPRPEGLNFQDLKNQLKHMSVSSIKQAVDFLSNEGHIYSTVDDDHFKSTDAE

[9] = molecular target: T1, RSM, RECQ4(348-388); test: EMSA; FA: 25 mM KPO4 pH 6.5, 70 mM KCl (or 500 mM NaCl), 25 C; ITC: same low-salt buffer, 30 C; NMR dsDNA: 50 mM NaPO4 pH 6.0, 150 mM NaCl, 298 K; NMR G4: 25 mM KPO4; conditions: protein: recombinant; tags: N-terminal His6-TEV construct (pET-M11); label: 5' FITC on strand 1; blunt
[10] = molecular target: T2, sRSM, RECQ4(358-388); test: as above; conditions: label: 5' FITC on strand 1; blunt
[11] = molecular target: T4, RECQ4(322-400); test: EMSA; profile indistinguishable from RSM and sRSM; FA: 25 mM KPO4 pH 6.5, 70 mM KCl (or 500 mM NaCl), 25 C; ITC: same low-salt buffer, 30 C; NMR dsDNA: 50 mM NaPO4 pH 6.0, 150 mM NaCl, 298 K; NMR G4: 25 mM KPO4; conditions: protein: recombinant; tags: N-terminal His6-TEV construct (pET-M11); label: 5' FITC on strand 1; blunt
[12] = molecular target: T5, RPA32C, RPA32(172−270); test: NMR titration; 2D lineshape analysis (TITAN v1.6) of 1H-15N HSQC titrations of 50 μM 15N RSM with RPA32C (up to 16× excess) and dsDNA (up to 4× excess) and their competition; four titrations, 24 spectra, 16 residues fitted globally to a competitive binding model; conditions: both partners purified
[13] = molecular target: T1, RSM, RECQ4(348-388); test: NMR; 300 mM NaCl, pH 6.0, 288 K; FA: 25 mM KPO4 pH 6.5, 70 mM KCl (or 500 mM NaCl), 25 C; ITC: same low-salt buffer, 30 C; NMR dsDNA: 50 mM NaPO4 pH 6.0, 150 mM NaCl, 298 K; NMR G4: 25 mM KPO4; conditions: protein: recombinant; tags: N-terminal His6-TEV construct (pET-M11); 10 bp duplex with unpaired TTTT arms (3' of strand 1, 5' of strand 2)
[14] = molecular target: T2, sRSM, RECQ4(358-388); test: stopped-flow/CD/NMR/light scattering global fit; Kd,1: initial 1:1 complex; FA: 25 mM KPO4 pH 6.5, 70 mM KCl (or 500 mM NaCl), 25 C; ITC: same low-salt buffer, 30 C; NMR dsDNA: 50 mM NaPO4 pH 6.0, 150 mM NaCl, 298 K; NMR G4: 25 mM KPO4; conditions: intramolecular parallel G4
[15] = label: 5' FITC (FA), intramolecular hybrid G4

Binder: TTGGGTTAGGGTTAGGGTTAGGGA (structured_DNA) [HT hybrid G4]
Kd [1, 15]: 420 ± 140 nM
binding result [2]: binds
binding result [3]: no binding
Kd [4, 15]: < 1000 nM

Binder: CAGCGCTCGG (ssDNA) [ss10]
Kd ([5]; label: 5' FITC (FA)): ~1000 nM

B1: ds10 (dsDNA)
DNA 1: CAGCGCTCGG
DNA 2: CCGAGCGCTG
binding result [6]: binds
Kd ([5]; label: 5' FITC on strand 1 (FA), blunt): ~1000 nM
Kd [7]: 6300 ± 600 nM

binding result [8]: binds
B2: RECQ4(322–400) (domain or fragment, human, UniProt O94761 322-400, looked up)
chain: T4 sequence
notes: Used 15N-labelled or unlabelled in NMR; source: E. coli BL21(DE3), purified (IMAC, TEV cleavage, Mono S, Superdex 75); not shown: His6, N-terminal, cleaved

B3: ds49 (dsDNA)
DNA 1: AGCTACCATGCCTGCACGAATTAAGCAATTCGTAATCATGGTCATAGCT
DNA 2: AGCTATGACCATGATTACGAATTGCTTAATTCGTGCAGGCATGGTAGCT
binding result [9]: binds
binding result [10]: binds
binding result [11]: binds

Kd [12]: 117000 nM
kon [12]: 2.4e+08 M⁻¹ s⁻¹
B4: RECQ4-specific motif (RSM), RECQ4(348–388) (domain or fragment, human, UniProt O94761 348-388, looked up)
chain: T1 chain
notes: H. sapiens RECQ4 residues 348-388 (RSM), cloned in pET-M11; Used 15N-labelled or unlabelled in NMR; unlabelled in ITC; source: E. coli BL21(DE3), purified (IMAC, TEV cleavage, Mono S, Superdex 75); not shown: His6, N-terminal, cleaved

binding result [8]: binds
B5: RSM W379A/W383A (domain or fragment, human, UniProt O94761 348-388, looked up)
chain: T1 chain with W32A, W36A
notes: H. sapiens RECQ4 residues 348-388 with W379A and W383A, made from the RECQ4(348–388) expression vector; also called RSM double tryptophan mutant; source: E. coli BL21(DE3), purified; not shown: His6, N-terminal, cleaved

B6: splayed-arm Y14 (dsDNA)
DNA 1: CAGCGCTCGGTTTT
DNA 2: TTTTCCGAGCGCTG
binding result [13]: binds

Binder: AGGGGGGAGGGAGGGTGG (structured_DNA) [CEB1 parallel G4]
Kd ([4]; label: 5' FITC or Cy3 (FA, EMSA), parallel G4): < 1000 nM

Binder: TTGGGTGGGTGGGTGGGT (structured_DNA) [T95-2T parallel G4]
Kd ([1]; intramolecular parallel G4): 200 ± 80 nM
Kd [14]: 3100 ± 200 nM
